Laboratory results as given in the supplement of paper PMC10567573.

B1: FEM1A (parent)
chain: PCCSSSPEEPLNGESYESCCPTSR

Variants of: B1
Test: protein stability index of a GFP-peptide fusion (GPS, HEK-293T) (PSI 1-6); higher = more stable
Conditions: c terminus: a fixed tail appended
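Further: lentivirally expressed fusions sorted by FACS into six bins by GFP to DsRed ratio, PSI derived from sequencing read proportions per bin multiplied by bin number.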

Row | Variant | protein stability index
1 | PCCSSSPDEPLNGESYESCCPTSR [E8D] | 3.51
2 | PCCSSSPMEPLNGESYESCCPTSR [E8M] | 2.48
3 | PCCSSSPNEPLNGESYESCCPTSR [E8N] | 3.35
4 | PCCSSSPPEPLNGESYESCCPTSR [E8P] | 3.47
5 | PCCSSSPWEPLNGESYESCCPTSR [E8W] | 1.63
6 | PCCSSSPYEPLNGESYESCCPTSR [E8Y] | 2.65
7 | PCCSSSPCEPLNGESYESCCPTSR [E8C] | 3.45
8 | PCCSSSPLEPLNGESYESCCPTSR [E8L] | 2.81
9 | PCCSSSPKEPLNGESYESCCPTSR [E8K] | 2.69
10 | PCCSSSPVEPLNGESYESCCPTSR [E8V] | 2.38
11 | PCCSSSPIEPLNGESYESCCPTSR [E8I] | 3.06
12 | PCCSSSPTEPLNGESYESCCPTSR [E8T] | 3.03
13 | PCCSSSPAEPLNGESYESCCPTSR [E8A] | 2.87
14 | PCCSSSPREPLNGESYESCCPTSR [E8R] | 2.88
15 | PCCSSSPFEPLNGESYESCCPTSR [E8F] | 2.37
16 | PCCSSSPGEPLNGESYESCCPTSR [E8G] | 3.06
17 | PCCSSSPQEPLNGESYESCCPTSR [E8Q] | 3.4
18 | PCCSSSPHEPLNGESYESCCPTSR [E8H] | 3.33
19 | PCCSSSPEEWLNGESYESCCPTSR [P10W] | 2.25
20 | PCCSSSPEEYLNGESYESCCPTSR [P10Y] | 3.14
21 | PCCSSSPEEDLNGESYESCCPTSR [P10D] | 4.17
22 | PCCSSSPEEQLNGESYESCCPTSR [P10Q] | 3.65
23 | PCCSSSPEEVLNGESYESCCPTSR [P10V] | 3.73
24 | PCCSSSPEETLNGESYESCCPTSR [P10T] | 3.1

Row | Variant | protein stability index
25 | PCCSSSPEEELNGESYESCCPTSR [P10E] | 3.7
26 | PCCSSSPEECLNGESYESCCPTSR [P10C] | 3.46
27 | PCCSSSPEESLNGESYESCCPTSR [P10S] | 3.91
28 | PCCSSSPEEHLNGESYESCCPTSR [P10H] | 3.46
29 | PCCSSSPEEKLNGESYESCCPTSR [P10K] | 3.5
30 | PCCSSSPEEMLNGESYESCCPTSR [P10M] | 3.73
31 | PCCSSSPEEALNGESYESCCPTSR [P10A] | 4.07
32 | PCCSSSPEEFLNGESYESCCPTSR [P10F] | 3.5
33 | PCCSSSPEELLNGESYESCCPTSR [P10L] | 3.41
34 | PCCSSSPEERLNGESYESCCPTSR [P10R] | 3.82
35 | PCCSSSPEEILNGESYESCCPTSR [P10I] | 3.6
36 | PCCSSSPEENLNGESYESCCPTSR [P10N] | 2.96
37 | PCCSSSPEEPLNGQSYESCCPTSR [E14Q] | 3.33
38 | PCCSSSPEEPLNGHSYESCCPTSR [E14H] | 3.81
39 | PCCSSSPEEPLNGDSYESCCPTSR [E14D] | 3.77
40 | PCCSSSPEEPLNGKSYESCCPTSR [E14K] | 2.9
41 | PCCSSSPEEPLNGFSYESCCPTSR [E14F] | 2.71
42 | PCCSSSPEEPLNGGSYESCCPTSR [E14G] | 2.24
43 | PCCSSSPEEPLNGWSYESCCPTSR [E14W] | 2.57
44 | PCCSSSPEEPLNGASYESCCPTSR [E14A] | 3.77
45 | PCCSSSPEEPLNGRSYESCCPTSR [E14R] | 3.62
46 | PCCSSSPEEPLNGVSYESCCPTSR [E14V] | 2.8
47 | PCCSSSPEEPLNGPSYESCCPTSR [E14P] | 3.41
48 | PCCSSSPEEPLNGISYESCCPTSR [E14I] | 2.88

Row | Variant | protein stability index
49 | PCCSSSPEEPLNGCSYESCCPTSR [E14C] | 2.86
50 | PCCSSSPEEPLNGYSYESCCPTSR [E14Y] | 2.41
51 | PCCSSSPEEPLNGSSYESCCPTSR [E14S] | 3.14
52 | PCCSSSPEEPLNGMSYESCCPTSR [E14M] | 2.99
53 | PCCSSSPEEPLNGNSYESCCPTSR [E14N] | 3.66
54 | PCCSSSPEEPLNGTSYESCCPTSR [E14T] | 2.94
55 | PCCSSSPEEPLNGLSYESCCPTSR [E14L] | 3.01
56 | PCCSSSPEEPLEGESYESCCPTSR [N12E] | 4.42
57 | PCCSSSPEEPLLGESYESCCPTSR [N12L] | 4.04
58 | PCCSSSPEEPLQGESYESCCPTSR [N12Q] | 3.32
59 | PCCSSSPEEPLHGESYESCCPTSR [N12H] | 3.48
60 | PCCSSSPEEPLYGESYESCCPTSR [N12Y] | 3.96
61 | PCCSSSPEEPLKGESYESCCPTSR [N12K] | 2.97
62 | PCCSSSPEEPLAGESYESCCPTSR [N12A] | 3.71
63 | PCCSSSPEEPLRGESYESCCPTSR [N12R] | 3.48
64 | PCCSSSPEEPLCGESYESCCPTSR [N12C] | 3.43
65 | PCCSSSPEEPLMGESYESCCPTSR [N12M] | 3.98
66 | PCCSSSPEEPLDGESYESCCPTSR [N12D] | 4.86
67 | PCCSSSPEEPLFGESYESCCPTSR [N12F] | 3.01
68 | PCCSSSPEEPLWGESYESCCPTSR [N12W] | 3.03
69 | PCCSSSPEEPLSGESYESCCPTSR [N12S] | 4.38
70 | PCCSSSPEEPLTGESYESCCPTSR [N12T] | 3.89
71 | PCCSSSPEEPLGGESYESCCPTSR [N12G] | 3.88
72 | PCCSSSPEEPLPGESYESCCPTSR [N12P] | 2.66

Row | Variant | protein stability index
73 | PCCSSSPEEPLIGESYESCCPTSR [N12I] | 4.22
74 | PCCSSSPEEPLVGESYESCCPTSR [N12V] | 3.58
75 | PCCSSSPEEPLNGESYKSCCPTSR [E17K] | 3.25
76 | PCCSSSPEEPLNGESYMSCCPTSR [E17M] | 3.44
77 | PCCSSSPEEPLNGESYRSCCPTSR [E17R] | 2.67
78 | PCCSSSPEEPLNGESYASCCPTSR [E17A] | 3.04
79 | PCCSSSPEEPLNGESYPSCCPTSR [E17P] | 3.7
80 | PCCSSSPEEPLNGESYLSCCPTSR [E17L] | 2.37
81 | PCCSSSPEEPLNGESYHSCCPTSR [E17H] | 3.44
82 | PCCSSSPEEPLNGESYSSCCPTSR [E17S] | 2.51
83 | PCCSSSPEEPLNGESYFSCCPTSR [E17F] | 3.55
84 | PCCSSSPEEPLNGESYTSCCPTSR [E17T] | 3.56
85 | PCCSSSPEEPLNGESYDSCCPTSR [E17D] | 3.81
86 | PCCSSSPEEPLNGESYGSCCPTSR [E17G] | 3.43
87 | PCCSSSPEEPLNGESYISCCPTSR [E17I] | 2.83
88 | PCCSSSPEEPLNGESYCSCCPTSR [E17C] | 4.12
89 | PCCSSSPEEPLNGESYNSCCPTSR [E17N] | 3.37
90 | PCCSSSPEEPLNGESNESCCPTSR [Y16N] | 3.97
91 | PCCSSSPEEPLNGESWESCCPTSR [Y16W] | 3.2
92 | PCCSSSPEEPLNGESMESCCPTSR [Y16M] | 3.83
93 | PCCSSSPEEPLNGESHESCCPTSR [Y16H] | 4.59
94 | PCCSSSPEEPLNGESKESCCPTSR [Y16K] | 3.68
